Changes are numbered by the printed parent chain. In names and notes the source's numbering stands.
B1: HvHPPDm-F372V: Hordeum vulgare HPPD mutant F372V, SEQ ID NO: 357 (protein)
chain: MPPTPTTPAATGAAAAVTPEHARPHRMVRFNPRSDRFHTLSFHHVEFWCADAASAAGRFAFALGAPLAARSDLSTGNSAHASQLLRSGSLAFLFTAPYANGCDAATASLPSFSADAARRFSADHGIAVRSVALRVADAAEAFRASRRRGARPAFAPVDLGRGFAFAEVELYGDVVLRFVSHPDGTDVPFLPGFEGVTNPDAVDYGLTRFDHVVGNVPELAPAAAYIAGFTGFHEFAEFTAEDVGTTESGLNSVVLANNSEGVLLPLNEPVHGTKRRSQIQTFLEHHGGPGVQHIAVASSDVLRTLRKMRARSAMGGFDFLPPPLPKYYEGVRRLAGDVLSEAQIKECQELGVLVDRDDQGVLLQIVTKPVGDRPTLFLEMIQRIGCMEKDERGEEYQKGGCGGFGKGNFSELFKSIEDYEKSLEAKQSAAVQGS
modifications: HvHPPDm-F372V Amino Acid Sequence
B2: N3HPPDm-F372G: Burkholderia sp. N3 HPPD mutant F372G, SEQ ID NO: 341 (protein)
chain: MQIPNWENPVGTDGFEFIEYTAPDPKALGQLFERMGFTAIARHRHKDVTVYRQGDINFIINAEPHSFAQRFARLHGPSICAIAFRVQDAAKAYQHALELGAWGFDNKTGPMELNIPAIKGIGDSLIYFVDRWRGKNGAQPGAIGDISIYDVDFEPIAGANPNPAGHGLTYIDHLTHNVHRGRMQEWAEFYERLFNFREVRYFDIEGKVTGVKSKAMTSPCGKIRIPINEEGSDTAGQIQEYLDAYHGEGIQHIALGTNDIYGAVDGLRGKEVKLLDTIDTYYELVDRRVPDHGESLDELKKRKILIDGARDDLLLQIGTENQIGPIFFEIIQRKGNQGFGEGNFKALFESIELDQIRRGVVQDKA
modifications: N3HPPDm-F372G Amino Acid Sequence
B3: N4HPPDm-F372G: Burkholderia sp. N4 HPPD mutant F372G, SEQ ID NO: 343 (protein)
chain: B2 chain with H65D, N160T, N258S, N343T
modifications: N4HPPDm-F372G Amino Acid Sequence
B4: SbHPPDm-F372V: Sorghum bicolor HPPD mutant F372V, SEQ ID NO: 361 (protein)
chain: MPPTPTTAAATGAAVAAASAEQAAFRLVGHRNFVRVNPRSDRFHTLAFHHVELWCADAASAAGRFSFGLGAPLAARSDLSTGNTAHASLLLRSGALAFLFTAPYAHGADAATASLPSFSAAEARRFAADHGLAVRAVALRVADAEDAFRASVAAGARPAFEPVELGLGFRLAEVELYGDVVLRYVSYPDDADASFLPGFVGVTSPGAADYGLRRFDHIVGNVPELAPAAAYFAGFTGFHEFAEFTAEDVGTTESGLNSMVLANNAENVLLPLNEPVHGTKRRSQIQTYLDHHGGPGVQHMALASDDVLRTLREMQARSAMGGFEFMAPPAPEYYDGVRRRAGDVLTEAQIKECQELGVLVDRDDQGVLLQIVTKPVGDRPTLFLEIIQRIGCMEKDEKGQEYQKGGCGGFGKGNFSQLFKSIEDYEKSLEAKQAAAAQGS
modifications: SbHPPDm-F372V Amino Acid Sequence
B5: N2HPPDm-F372G: Sphingobium sp. N2 HPPD mutant F372G, SEQ ID NO: 339 (protein)
chain: MTLFDNPLGLDGFEFVEFSAPAKGMLEPVFAAMGFVMIARHRSKDVQLWRQGGINLIANYEPRSPAAYFAAEHGPSACGMGWRVRNAAKAYELAVERGAEPVDVKTGPMELRLPAIRGIGGSIIYLIDRYEDEDGGLSIYDIDFVYEPGVDRHPEGAGFKIIDHLTHNVYGGRMAHWASFYERVFGFREIRYFDIKGEYTGLTSKAMTAPDGKIRIPLNEEGKAGGGQIEEFLRAYNGEGIQHIAFLCDDLIAAWDKLKALGTPLMTAPPATYYEMLDERLPGHGEPVAELQKRGILLDGSTQQGDPRLLLQIGGQATIGPVFFEFIQRKKDEGFGEGNFTALFESMERDQLRRGTLNAGESA
modifications: N2HPPDm-F372G Amino Acid Sequence
B6: SiHPPDm-F372V: Setaria italica HPPD mutant F372V, SEQ ID NO: 359 (protein)
chain: MPPTPTPAAAAPGAAAAPAAGDQAAFRLVGHRGFVRVNPRSDRFHTLSFHHVELWCADATSAAGRFSFGLGAPLAARSDLSTGNSAHASLLLRSGSLAFLFTAPYAHGVDAATASLPSFSAPAARSFAADHGLAVRAIGLRVADAEDAFRASVAAGARPAFKPVELGLGFRLAEVELYGDVVLRYVSYPDAEDAPFLPGFENVNNPGALNYGLRRFDHIVGNVPELAPVAAYVAGFTGFHEFAEFTAEDVGTAESGLNSMVLANNSETVLIPLNEPVHGTKRRSQIQTFLDHNGGPGVQHIALASDDVLRTLREMQARSAMGGFEFMAAPPPDYYEGVRRRAGDVLSEAQIKECQELGVLVDRDDQGVLLQIVTKPVGDRQTLFLEIIQRIGCMEKDEQGQEYQKGGCGGFGKGNFSQLFKSIEDYEKSLESKQAAAVQGS
modifications: SiHPPDm-F372V Amino Acid Sequence
B7: GsHPPDm-F372G: Gossypium hirsutum HPPD mutant F372G, SEQ ID NO: 299 (protein)
chain: MVQTNQSGSGNDFKLVGFSNFVRSNPKSDRFTVKRFHHIEFWCTDATNVARRFSWGLGMQFVAKSDLSTGNLTHASYLLRSRDLNFLFTAPYSPSIAVAQNLSPQSTASIPSFDHSLCRSFAATHGLGVRAIAIEVDDAETAFTTSVTHGALPFCPPTPLGDVATIAEVKLYGDVVLRYVSYTTTINSDHDFLPGFEKIEDTLSYPLDYGLRRLDHAVGNVPELGPAVSYVKSFTGFHEFAEFTAEDVGTSESGLNSVVLANNEEMVLLPMNEPVFGTKRKSQIQTYLEHNEGAGVQHLALVSEDIFKTLREMRKRSFVGGFEFMPSPPPTYYKKLKQRAGDILSDEQIKECEELGILVDRDDQGTLLQIGTKPVGDRPTIFIEIIQRIGCMVKDEEGKQYQKGGCGGFGKGNFSELFKSIEEYEKSLEAKQSQNP
modifications: GsHPPDm-F372G Amino Acid Sequence
B8: N1HPPDm-F372G: Sphingobium sp. N1 HPPD mutant F372G, SEQ ID NO: 337 (protein)
chain: MAADSENPLGLHGFAFAEFTSPDPAAMARQFEQLGFVPAARRKDRGLTLYRQGRIAFILNAGEGEQASAFRAAHGPSANGMAFNVADAKAAHRHAIQSGATDADTAQSALPGTYAIEGIGDSLLYLVDSDPFADWDEVPGWREASAERGVGLDLLDHLTHNVRRGQMRVWSEFYATLFGFEEQKFFDIKGQATGLFSQAMIAPDHEIRIPLNESQDDNSQIEEFIREYNGEGIQHLALTTPDIYSTVEKLRANGVRLQDTIDTYYDLVDERVPGHGEDLARLRKNRILIDGDVHDEGLLLQIGTETMFGPIFFEIIQRKGNEGFGNGNFQVLYESIELDQIRRGVVTVDA
modifications: N1HPPDm-F372G Amino Acid Sequence
B9: ZmHPPDm-F372G: Zea mays HPPD mutant F372G, SEQ ID NO: 295 (protein)
chain: MPPTPTAAAAGAAVAAASAAEQAAFRLVGHRNFVRFNPRSDRFHTLAFHHVELWCADAASAAGRFSFGLGAPLAARSDLSTGNSAHASLLLRSGSLSFLFTAPYAHGADAATAALPSFSAAAARRFAADHGLAVRAVALRVADAEEAFRTSVAAGARPAFGPVDLGRGFRLAEVELYGDVVLRYVSYPDGAAGEPFLPGFEGVASPGAADYGLSRFDHIVGNVPELAPAAAYFAGFTGFHEFAEFTTEDVGTAESGLNSMVLANNSENVLLPLNEPVHGTKRRSQIQTFLDHHGGPGVQHMALASDDVLRTLREMQARSAMGGFEFMAPPTSDYYDGVRRRAGDVLTEAQIKECQELGVLVDRDDQGVLLQIGPKPVGDRPTLFLEIIQRIGCMERDEKGQEYQKGGCGGFGKGNFSQLFKSIEDYEKSLEAMQAAAAATAQGS
modifications: ZmHPPDm-F372G Amino Acid Sequence
B10: TaHPPDm-F372G: Triticum aestivum HPPD mutant F372G, SEQ ID NO: 301 (protein)
chain: MPPTPTTPAATGAGAAAAVTPEHARPRRMVRFNPRSDRFHTLSFHHVEFWCADAASAAGRFAFALGAPLAARSDLSTGNSVHASQLLRSGNLAFLFTAPYANGCDAATASLPSFSADAARRFSADHGLAVRSIALRVADAAEAFRASVDGGARPAFSPVDLGRGFGFAEVELYGDVVLRFVSHPDGTDVPFLPGFEGVSNPGAVDYGLTRFDHVVGNVPELASAAAYVAGFTGFHEFAEFTTEDVGTAESGLNSMVLANNSEGVLLPLNEPVHGTKRRSQIQTFLEHHGGPGVQHIAVASSDVLRTLREMRARSAMGGFDFLPPPLPKYYEGVRRIAGDVLSEAQIKECQELGVLVDRDDQGVLLQIGTKPVGDRPTLFLEMIQRIGCMEKDERGEEYQKGGCGGFGKGNFSELFKSIEDYEKSLEAKQSAAVQGS
modifications: TaHPPDm-F372G Amino Acid Sequence
B11: BdHPPDm-F372V: Brachypodium distachyon HPPD mutant F372V, SEQ ID NO: 355 (protein)
chain: MPPPATTAAPAAAAVTPEHARPPRRVARVNPRSDRFSALSFHHVELWCADAASAAGRFSFALGAPPAARSDLSTGNSAHASILLRSGSLAFLFTAPYAPSPASDSAASIPSFSASAARQFTADHGGLAVRAVALRVSSASDAFHASVSAGARPSFPPADLGQGFALAEVELYGDVVLRFISHPDENTEIPFLPGFESVSNPGASTYGLTRFDHVVGNVPSLAPVAAYIAGFTGFHEFAEFTAEDVGTADSGLNSVVLANNSERVLLPLNEPVHGTKRRSQIQTYLDHHGGPGVQHIALASDDVLRTLREMRARSAMGGFEFLAPPPPNYYDGVRRRAGDVLSEAQIKECQELGVLVDRDDQGVLLQIVTKPVGDRPTLFLEMIQRIGCMEKDEIGQEQQKGGCGGFGKGNFSELFRSIEEYEKSLEAKQSAVVQES
modifications: BdHPPDm-F372V Amino Acid Sequence

Test system: Arabidopsis thaliana T1 plants
Test: Topramezone tolerance of transgenic Arabidopsis thaliana T1 plants (pesticide damage grade by bleached leaf area, score, resistance evaluation)
Assay type: in vivo
In short: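 Herbicide tolerance was judged per plant on a bleaching scale (grade 0 no bleaching to grade 3 fully bleached) 7 DAT. Topramezone doses were 0, 25, 50 and 100 g ai/ha on 18-day-old T1 and wild-type plants.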

[1] = topramezone 25 g ai/ha (1x), HPPD F372V mutants, Table 7
[2] = topramezone 100 g ai/ha (4x), HPPD F372V mutants, Table 7
[3] = topramezone 25 g ai/ha (1x), HPPD F372G mutants, Table 6
[4] = topramezone 100 g ai/ha (4x), HPPD F372G mutants, Table 6

Molecule | Resistance evaluation [1] | Resistance evaluation [2] | Resistance evaluation [3] | Resistance evaluation [4]
B1 | Highly resistant | Poorly resistant |  | 
B2 |  |  | Highly resistant | Highly resistant
B3 |  |  | Highly resistant | Highly resistant
B4 | Poorly resistant | Non-resistant |  | 
B5 |  |  | Highly resistant | Highly resistant
B6 | Moderately resistant | Poorly resistant |  | 
B7 |  |  | Moderately resistant | Non-resistant
B8 |  |  | Highly resistant | Highly resistant
B9 |  |  | Highly resistant | Moderately resistant
B10 |  |  | Highly resistant | Moderately resistant
B11 | Highly resistant | Poorly resistant |  | 

Source: patent US20230212587A1, “Mutant Hydroxyphenylpyruvate Dioxygenase Polypeptide, Encoding Gene Thereof and Use Therefor” (Beijing Dabeinong Biotechnology Co., Ltd., priority 2019, published 2023)
